Read-outs that look alike come from different tables or passages of the source.
Columns and labels:
[1] = target: T1, glycosylated human PAI-1 (active form) (human, UniProt P05121 24-402, glycosylated); test: cell-based or functional assay
[2] = target: T2, human PAI-1 (human, UniProt P05121 24-402); test: Biacore, hybridoma supernatant
T2 construct: also used for endogenous PAI-1 of human plasma, liver lysate and lung fibroblasts; also called hPAI-1; hPAI

[3] = target: T1, glycosylated human PAI-1 (active form); test: cell-based or functional assay; remark: listed apart in the source
[4] = target: T2, human PAI-1; test: cell-based or functional assay
[5] = target: T1, glycosylated human PAI-1 (active form); test: cell-based or functional assay; remark: listed apart in the source
[6] = target: T3, cyno PAI-1 captured on immobilized human vitronectin (cynomolgus monkey; human, UniProt P04004 20-478, limits assumed); test: Biacore, cPAI-1 on vitronectin chip, two state reaction model (kd1)
T3 construct: non-covalent complex formed on the chip; also called cPAI-1/Vn
T3 sequence (chain, as listed by the source limits assumed, chain 1 of 2): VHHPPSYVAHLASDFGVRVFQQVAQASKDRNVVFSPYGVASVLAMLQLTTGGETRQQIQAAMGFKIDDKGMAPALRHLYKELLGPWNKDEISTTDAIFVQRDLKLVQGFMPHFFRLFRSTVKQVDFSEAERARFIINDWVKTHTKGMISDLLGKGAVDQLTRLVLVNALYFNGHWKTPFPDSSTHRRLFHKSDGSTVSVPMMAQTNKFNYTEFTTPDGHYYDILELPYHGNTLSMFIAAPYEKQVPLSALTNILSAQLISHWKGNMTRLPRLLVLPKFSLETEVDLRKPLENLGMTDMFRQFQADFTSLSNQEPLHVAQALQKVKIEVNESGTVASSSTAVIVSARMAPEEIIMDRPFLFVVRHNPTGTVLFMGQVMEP
T3 sequence (P04004 20-478 limits assumed, chain 2 of 2): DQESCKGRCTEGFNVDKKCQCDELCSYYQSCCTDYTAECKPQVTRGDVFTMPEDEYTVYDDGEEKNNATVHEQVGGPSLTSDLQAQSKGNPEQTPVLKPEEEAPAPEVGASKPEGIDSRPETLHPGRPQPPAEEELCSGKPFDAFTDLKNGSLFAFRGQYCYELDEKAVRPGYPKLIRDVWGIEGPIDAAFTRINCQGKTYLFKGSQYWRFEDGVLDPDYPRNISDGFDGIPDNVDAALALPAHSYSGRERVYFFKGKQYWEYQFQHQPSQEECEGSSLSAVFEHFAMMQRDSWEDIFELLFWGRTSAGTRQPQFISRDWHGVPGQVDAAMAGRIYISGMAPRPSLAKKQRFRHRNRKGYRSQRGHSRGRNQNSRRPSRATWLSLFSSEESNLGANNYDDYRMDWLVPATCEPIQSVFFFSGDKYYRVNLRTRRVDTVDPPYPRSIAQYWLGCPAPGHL

[7] = target: T3, cyno PAI-1 captured on immobilized …; test: Biacore, cPAI-1 on vitronectin chip, two state reaction model (ka1)
[8] = target: T4, human PAI-1 captured on immobilized human vitronectin (human, UniProt P04004 20-478); test: Biacore, hPAI-1 on vitronectin chip, 1:1 model
T4 construct: non-covalent complex formed on the chip or plate; also called PAI-1/Vn complex; Vn captured hPAI-1
T4 sequence (chain, as listed by the source limits assumed, chain 1 of 2): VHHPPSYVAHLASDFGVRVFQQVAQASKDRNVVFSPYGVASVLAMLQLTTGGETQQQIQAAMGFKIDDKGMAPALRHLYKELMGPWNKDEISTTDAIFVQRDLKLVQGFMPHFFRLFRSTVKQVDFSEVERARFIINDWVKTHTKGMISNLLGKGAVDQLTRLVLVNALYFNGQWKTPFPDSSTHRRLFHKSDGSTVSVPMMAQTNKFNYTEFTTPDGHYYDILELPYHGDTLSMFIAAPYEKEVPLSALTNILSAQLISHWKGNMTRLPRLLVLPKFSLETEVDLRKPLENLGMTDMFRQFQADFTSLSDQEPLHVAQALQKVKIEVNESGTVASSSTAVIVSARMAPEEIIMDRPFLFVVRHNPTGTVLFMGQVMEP
T4 sequence (P04004 20-478 limits assumed, chain 2 of 2): as the sequence (P04004 20-478 limits assumed, chain 2 of 2) above

[9] = target: T3, cyno PAI-1 captured on immobilized …; test: Biacore, cPAI-1 on vitronectin chip, two state reaction model
[10] = target: T3, cyno PAI-1 captured on immobilized …; test: Biacore, cPAI-1 on vitronectin chip, 1:1 model
[11] = target: T1, glycosylated human PAI-1 (active form); test: cell-based or functional assay; remark: listed apart in the source
[12] = target: T2, human PAI-1; test: Biacore, mAb on anti-human IgG Fc chip, 1:1 model
[13] = target: T5, cynomolgus PAI-1 (cynomolgus monkey (Macaca fascicularis), UniProt P05121 24-402 (human entry)); test: cell-based or functional assay
[14] = target: T2, human PAI-1; test: cell-based or functional assay; remark: listed apart in the source
[15] = target: T5, cynomolgus PAI-1; test: Biacore, mAb on anti-human IgG Fc chip / cyno PAI-1, 1:1 model

| Binder | Chromogenic Assay IC50 [4] [nM] | Plasminogen Activation Y50% [5] [%] | Kd [8] [nM] | koff [8] [s⁻¹] | kon [8] [M⁻¹ s⁻¹] | Plasminogen Activation IC50 [5] [nM] | Kd [10] [nM] | koff [10] [s⁻¹] | kon [10] [M⁻¹ s⁻¹] | Plasminogen Activation IC50 [11] [nM] | Plasminogen Activation Y50% [11] [%] | further results |
| --- | --- | --- | --- | --- | --- | --- | --- | --- | --- | --- | --- | --- |
| C45 (antibody, mouse IgG2b, V domains shown, mouse IgG2b; also called mC45; C45 (IgG2b)) VH: QVQLQQSGVELVRPGTSVKVSCKASGYAFTNYLIEWIKQRPGQGLEWIGVIHPGSGVTNYNEKFKGKAILTADKSSSTAYMQLSSLTSDDSAVYFCARDYYGSSHGLMDYWGQGTSVTVSS VL: DIKMTQSPSSMYASLGERVTITCKASQDINSYLSWFQQKPGKSPKTLIYRANRLVDGVPSRFSGSGSGQDYSLTISSLEYEDMGIYYCLQYDEFPRTFGGGTKLEIK | – | – | – | – | – | – | – | – | – | – | – | Chromogenic Assays [1]: 0.5 nM; Plasmin Generation [1]: 10.6 nM; koff [2]: ≤ 0.0001 s⁻¹; plasmin generation, hepatic stellate cells, IC50abs [3]: 6.5 nM; plasmin generation, hepatic stellate cells, Imax [3]: 97% |
| A44-hv4 (antibody, V domains shown, humanized A44, HEK293; constant regions as for A44-hv1; also called LC1a x HC2b; variant 4) VH: EMTLKESGPTLVKPTQTLSLTCSVTGDSMTQGYWNWIRKFPGKALEYMGYITYSGSTYYNPSLKGRISITRNTSKNQYYLTLSSVTTVDTATYYCARWHYGSPYYFDYWGQGTTLTVSS VL: DIKMTQSPSSLSASVGDRVTITCKASQDINSYLSWLQQKPGKSPKTLIYRANRSVDGVPSRFSGSGSGQDYSLTISSLQPEDLGIYYCLQYDEFPPTFGGGTKLEIK | 0.52 | 26 | 0.0192 | 8.8e-05 | 4.59e+06 | – | – | – | – | – | – | koff [6]: 0.00017 s⁻¹; kon [7]: 226000 M⁻¹ s⁻¹; Kd [9]: 0.752 nM |
| A44-hv6 (antibody, V domains shown, humanized A44, HEK293; constant regions as for A44-hv1; also called LC3 x HC3; variant 6) VH: QMTLKESGPTLVKPTQTLSLTCSVSGDSMTNGYWNWIRQFPGKALEYMGYITYSGSTYYNPSLKGRITITRDTSKNQYYLTLSSVTTVDTATYYCARWHYGSPYYFDYWGQGTTLTVSS VL: DIKMTQSPSSLSASVGDRVTITCKASQDINSYLSWLQQKPGKSPKTLIYRANRSVDGVPSRFSGSGSGQDYSLTISSLQPEDLATYYCLQYDEFPPTFGGGTKLEIK | 0.82 | 56.9 | 0.0133 | 5.68e-05 | 4.38e+06 | 1.78 | 0.00501 | 2.51e-05 | 5.26e+06 | – | – | – |
| A44-hv1 (antibody, V domains shown, humanized A44, HEK293; also called LC1a x HC1a; variant 1) VH: EMTLKESGPTLVKPTQTLSLTCSVTGDSMTNGYWNWIRKFPGKALEYMGYITYSGSTYYNPSLKGRISITRNTSKNQYYLTLSSVTTVDTATYYCARWHYGSPYYFDYWGQGTTLTVSS VL: DIKMTQSPSSLSASVGDRVTITCKASQDINSYLSWLQQKPGKSPKTLIYRANRSVDGVPSRFSGSGSGQDYSLTISSLQPEDLGIYYCLQYDEFPPTFGGGTKLEIK | 0.49 | 45 | 0.0526 | 0.000555 | 1.1e+07 | 3.12 | – | – | – | 2.08 | 58.5 | koff [6]: 0.00827 s⁻¹; kon [7]: 3.37e+06 M⁻¹ s⁻¹; Kd [9]: 2.45 nM |
| A44-hv12 (antibody, V domains shown, humanized A44, HEK293; constant regions as for A44-hv1; also called LC4 x HC3; variant 12) VH: QMTLKESGPTLVKPTQTLSLTCSVSGDSMTNGYWNWIRQFPGKALEYMGYITYSGSTYYNPSLKGRITITRDTSKNQYYLTLSSVTTVDTATYYCARWHYGSPYYFDYWGQGTTLTVSS VL: DIKMTQSPSSLSASVGDRVTITCKASQDINSYLSWLQQKPGKSPKTLIYRAQRSVEGVPSRFSGSGSGQDYSLTISSLQPEDLATYYCLQYDEFPPTFGGGTKLEIK | – | – | 0.0161 | 8.14e-05 | 5.15e+06 | – | 0.0569 | 0.000235 | 4.26e+06 | 1.99 | 76.7 | Kd [12]: 0.0414 nM; koff [12]: 6.7e-05 s⁻¹; kon [12]: 1.62e+06 M⁻¹ s⁻¹; active PAI-1 by uPA-PAI-1 complex ELISA, Cyno PAI-1, IC50 [13]: 0.0266 nM; active PAI-1 by uPA-PAI-1 complex ELISA, Cyno PAI-1, Y50% [13]: 53.5%; active PAI-1 by uPA-PAI-1 complex ELISA, hPAI-1 Standard, IC50 [14]: 0.114 nM; active PAI-1 by uPA-PAI-1 complex ELISA, hPAI-1 Standard, Y50% [14]: 53.5%; active PAI-1 by uPA-PAI-1 complex ELISA, hPlasma TH1782, IC50 [14]: 0.00335 nM; active PAI-1 by uPA-PAI-1 complex ELISA, hPlasma TH1782, Y50% [14]: 37.7%; Kd [15]: 0.0244 nM; koff [15]: 5.45e-05 s⁻¹; kon [15]: 2.24e+06 M⁻¹ s⁻¹ |
| A44-hv5 (antibody, V domains shown, humanized A44, HEK293; constant regions as for A44-hv1; also called LC2 x HC2b; variant 5) VH: EMTLKESGPTLVKPTQTLSLTCSVTGDSMTQGYWNWIRKFPGKALEYMGYITYSGSTYYNPSLKGRISITRNTSKNQYYLTLSSVTTVDTATYYCARWHYGSPYYFDYWGQGTTLTVSS VL: DIKMTQSPSSLSASVGDRVTITCKASQDINSYLSWLQQKPGKSPKTLIYRAQRSVEGVPSRFSGSGSGQDYSLTISSLQPEDLGIYYCLQYDEFPPTFGGGTKLEIK | 1.11 | – | 0.0102 | 2.76e-05 | 2.72e+06 | – | 0.0326 | 0.000111 | 3.4e+06 | – | – | – |
| A44-hv9 (antibody, V domains shown, humanized A44, HEK293; constant regions as for A44-hv1; also called LC5b x HC5b; variant 9) VH: QMQLQESGPGLVKPSETLSLTCTVSGDSMTNGYWNWIRQPPGKGLEYMGYITYSGSTYYNPSLKSRITISRDTSKNQYSLKLSSVTAADTAVYYCARWHYGSPYYFDYWGQGTLVTVSS VL: DIQMTQSPSSLSASVGDRVTITCKASQDINSYLSWLQQKPGKAPKTLIYRANRSVDGVPSRFSGSGSGQDYTFTISSLQPEDIATYYCLQYDEFPPTFGGGTKVEIK | 0.86 | 46.5 | 0.017 | 0.000103 | 6.36e+06 | 1.9 | 0.0215 | 0.000134 | 6.51e+06 | 1.51 | 50.9 | – |
| A44-hv14 (antibody, V domains shown, humanized A44, HEK293; constant regions as for A44-hv1; also called LC4 x HC5b; variant 14) VH: QMQLQESGPGLVKPSETLSLTCTVSGDSMTNGYWNWIRQPPGKGLEYMGYITYSGSTYYNPSLKSRITISRDTSKNQYSLKLSSVTAADTAVYYCARWHYGSPYYFDYWGQGTLVTVSS VL: DIKMTQSPSSLSASVGDRVTITCKASQDINSYLSWLQQKPGKSPKTLIYRAQRSVEGVPSRFSGSGSGQDYSLTISSLQPEDLATYYCLQYDEFPPTFGGGTKLEIK | – | – | 0.00957 | 3.95e-05 | 4.06e+06 | – | 0.0386 | 0.000213 | 5.86e+06 | 1.82 | 61.2 | Kd [12]: 0.027 nM; koff [12]: 3.42e-05 s⁻¹; kon [12]: 1.25e+06 M⁻¹ s⁻¹; active PAI-1 by uPA-PAI-1 complex ELISA, Cyno PAI-1, IC50 [13]: 0.0287 nM; active PAI-1 by uPA-PAI-1 complex ELISA, Cyno PAI-1, Y50% [13]: 52.5%; active PAI-1 by uPA-PAI-1 complex ELISA, hPAI-1 Standard, IC50 [14]: 0.0563 nM; active PAI-1 by uPA-PAI-1 complex ELISA, hPAI-1 Standard, Y50% [14]: 52.5%; active PAI-1 by uPA-PAI-1 complex ELISA, hPlasma TH1782, IC50 [14]: 0.0586 nM; active PAI-1 by uPA-PAI-1 complex ELISA, hPlasma TH1782, Y50% [14]: 73.9%; Kd [15]: 0.0115 nM; koff [15]: 2.69e-05 s⁻¹; kon [15]: 2.32e+06 M⁻¹ s⁻¹ |
| A44-hv8 (antibody, V domains shown) VH: QVQLQESGPGLVKPSETLSLTCTVSGDSMTNGYWNWIRQPPGKGLEYMGYITYSGSTYYNPSLKSRITISRNTSKNQYSLKLSSVTAADTAVYYCARWHYGSPYYFDYWGQGTLVTVSS VL: DIQMTQSPSSLSASVGDRVTITCKASQDINSYLSWLQQKPGKAPKLLIYRANRSVDGVPSRFSGSGSGTDYTFTISSLQPEDIATYYCLQYDEFPPTFGGGTKVEIK | 0.76 | 11 | – | – | – | – | – | – | – | – | – | – |
